# From patent publication US20220403363A1
# Assays:
# [1] = molecular target: gxpS_A3T3C/E4A4T4TE without SYNZIP (protein encoded by plasmid pJW83); test: cell-based or functional assay
# [2] = tested on: SYNZIP18-gxpS_A3T3C/E4A4T4TE (protein encoded by plasmid pJW76)
# [3] = tested on: gxpS_A3T3C/E4A4T4TE without SYNZIP (protein encoded by plasmid pJW83)
# [4] = tested on: T1, SYNZIP18-xtpS_A3T3C/E4A4T4TE (protein encoded by plasmid pJW62)
# T1 sequence: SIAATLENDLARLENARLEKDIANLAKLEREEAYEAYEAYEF
# [5] = tested on: T2, SYNZIP18-xtpS_T2C3A3T3C/E4A4T4TE (protein encoded by plasmid pNA5)
# T2 sequence: T1 sequence
# [6] = tested on: xtpS_T2-TE without SYNZIP (protein encoded by plasmid pNA12)
# [7] = tested on: xtpS_A3T3C/E4A4T4TE without SYNZIP (protein encoded by plasmid pJW64)
# [8] = tested on: GlbD second part (from the T domain) with SZ18
# [9] = tested on: GlbD second part (from the T domain) without SZ
substance,measurement,setting,value
szeS_C1A1T1C/E2A2T2C3-SYNZIP17 (protein encoded by plasmid pJW92) (enzyme),decrease of peptides 10 and 11 in NRPS-4b (no N-terminal SZ) against NRPS-4a (HPLC-MS),[1],80 % decrease
ambS_A1T1C/E2A2T2C3-SYNZIP17 (protein encoded by plasmid pJW91),"peptide production by NRPS-3a in E. coli (HPLC-MS), peptides 7, 8 and 9",[2],"The peptides 7, 8 and 9, which eluted at a retention time of 6 min, 7.1 min and 7 min, could be identified on the basis of their mass"
same,production of peptide 9 by NRPS-3b (no N-terminal SZ) relative to NRPS-3a (HPLC-MS),[3],peptide 9 to ˜18%
same,production of peptides 7 and 8 by NRPS-3b (no N-terminal SZ) relative to NRPS-3a (HPLC-MS),[3],7 and 8 were only produced to ˜50%
xtpS_A1T1C/E2A2T2C3-GS(4)-SYNZIP17 (protein encoded by plasmid pNA10),"increase in productivity for cyclic peptide 2 against the construct without linker (average over NRPS-15b, -15c, -15d)",[4],an average increase in productivity of ˜37% for cyclic 2 and ˜26% for linear peptide 1
same,"increase in productivity for linear peptide 1 against the construct without linker (average over NRPS-15b, -15c, -15d)",[4],an average increase in productivity of ˜37% for cyclic 2 and ˜26% for linear peptide 1
same,production of cyclic product 2 by NRPS-15d (4 AS GS linker) (HPLC-MS),[4],the cyclic product 2 with almost WT level was produced for all constructions with GS linker
xtpS_A1T1C/E2A2 without SYNZIP (protein encoded by plasmid pNA11),decrease in productivity of NRPS-14c compared to NRPS-14a (told of the controls overall),[5],"Overall, the controls showed a decrease in productivity of 90% compared to NRPS-14a"
same,"production of peptides 2 and 1 by NRPS-14c (no C-terminal SZ), % of WT level (HPLC-MS)",[5],showed a very low production of the cyclic product 2 and absolutely no production of the linear peptide 1 at ˜3-10% of the WT level
same,decrease in productivity of NRPS-14d compared to NRPS-14a (told of the controls overall),[6],"Overall, the controls showed a decrease in productivity of 90% compared to NRPS-14a"
same,"production of peptides 2 and 1 by NRPS-14d (no SZs), % of WT level (HPLC-MS)",[6],showed a very low production of the cyclic product 2 and absolutely no production of the linear peptide 1 at ˜3-10% of the WT level
xtpS_A1T1C/E2A2T2C3 without SYNZIP (protein encoded by plasmid pJW63),decrease in production of cyclic peptide 2 by NRPS-16c in relation to NRPS-16a (both SZs),[4],control NRPS-16c shows a decrease in the production of cyclic peptide 2 by 80%
same,"production of peptide 2 by NRPS-16c (no C-terminal SZ), % of WT level (HPLC-MS)",[4],NRPS-16c showed only a very low production of 2 with 3.2% of the WT level
same,peptide production by NRPS-16d (no SZs) (HPLC-MS),[7],showed no peptide production for control experiments NRPS-16b and NRPS-16d
szeS_C1A1T1C/E2A2T2C3-SYNZIP17 (protein encoded by plasmid pJW92),"peptide production by NRPS-4a in E. coli (HPLC-MS), peptides 10 and 11",[2],Both the mass of 10 and the mass of 11 could be detected in the extracted ion chromatogram (EIC)
xtpS_A1T1C/E2A2T2C3-GS(8)-SYNZIP17 (protein encoded by plasmid pNA9),"increase in productivity for cyclic peptide 2 against the construct without linker (average over NRPS-15b, -15c, -15d)",[4],an average increase in productivity of ˜37% for cyclic 2 and ˜26% for linear peptide 1
same,"increase in productivity for linear peptide 1 against the construct without linker (average over NRPS-15b, -15c, -15d)",[4],an average increase in productivity of ˜37% for cyclic 2 and ˜26% for linear peptide 1
same,production of cyclic product 2 by NRPS-15c (8 AS GS linker) (HPLC-MS),[4],the cyclic product 2 with almost WT level was produced for all constructions with GS linker
xtpS_A1T1C/E2A2T2C3-GS(10)-SYNZIP17 (protein encoded by plasmid pNA8),"increase in productivity for cyclic peptide 2 against the construct without linker (average over NRPS-15b, -15c, -15d)",[4],an average increase in productivity of ˜37% for cyclic 2 and ˜26% for linear peptide 1
same,"increase in productivity for linear peptide 1 against the construct without linker (average over NRPS-15b, -15c, -15d)",[4],an average increase in productivity of ˜37% for cyclic 2 and ˜26% for linear peptide 1
same,production of cyclic product 2 by NRPS-15b (10 AS GS linker) (HPLC-MS),[4],the cyclic product 2 with almost WT level was produced for all constructions with GS linker
xtpS_A1T1C/E2A2T2C3-SYNZIP19 (protein encoded by plasmid pNA1),"production of cyclic peptide 2 by NRPS-16 (C-A split, SZ19/18) relative to WT XtpS (HPLC-MS)",[4],13% (NRPS-16)
same,production of linear peptide 1 by NRPS-16 (HPLC-MS),[4],NRPS-16 showed no production of 1
same,peptide production by NRPS-16b (no N-terminal SZ) (HPLC-MS),[7],showed no peptide production for control experiments NRPS-16b and NRPS-16d
GlbD first part (up to the A domain) without SZ,"glidobactin A production, negative control without one SZ",[8],"In the negative controls without in each case one or both SZs, there is virtually no glidobactin A production"
same,"glidobactin A production, negative control without both SZs",[9],"In the negative controls without in each case one or both SZs, there is virtually no glidobactin A production"
xldS_C1A1T1C/E2A2T2C3-SYNZIP17 (protein encoded by plasmid pJW93),peptide production by NRPS-5a in E. coli (HPLC-MS),[2],showed the production of most expected derivatives
same,peptide production by NRPS-5b (negative control without SZ18) against NRPS-5a (HPLC-MS),[3],the negative control (NRPS-5b) showed no significant difference in peptide production from the NRPS-5a construct
GlbD first part (up to the A domain) with SZ17,glidobactin A production by the PKS/NRPS hybrid with divided GlbD,[8],leads to a complete synthesis of the glidobactin peptide
same,"glidobactin A production, negative control without one SZ",[9],"In the negative controls without in each case one or both SZs, there is virtually no glidobactin A production"
